In general, IC50 refers to the concentration that inhibits the measured activity by half. Low values mean higher potency, high ones lower potency.

This passage reports IC50 results from patent US6342220 (Genentech, dated 2002).

The target in the experiment is T1, mpl-Ig (human, UniProt P40238 26-491, limits assumed).
T1 construct: From conditioned media of mpl-Ig-transfected 293 cells; also called mpl-IgG; not shown: human IgG Fc (the fusion is captured with rabbit anti-human IgG Fc)
T1 sequence (looked up): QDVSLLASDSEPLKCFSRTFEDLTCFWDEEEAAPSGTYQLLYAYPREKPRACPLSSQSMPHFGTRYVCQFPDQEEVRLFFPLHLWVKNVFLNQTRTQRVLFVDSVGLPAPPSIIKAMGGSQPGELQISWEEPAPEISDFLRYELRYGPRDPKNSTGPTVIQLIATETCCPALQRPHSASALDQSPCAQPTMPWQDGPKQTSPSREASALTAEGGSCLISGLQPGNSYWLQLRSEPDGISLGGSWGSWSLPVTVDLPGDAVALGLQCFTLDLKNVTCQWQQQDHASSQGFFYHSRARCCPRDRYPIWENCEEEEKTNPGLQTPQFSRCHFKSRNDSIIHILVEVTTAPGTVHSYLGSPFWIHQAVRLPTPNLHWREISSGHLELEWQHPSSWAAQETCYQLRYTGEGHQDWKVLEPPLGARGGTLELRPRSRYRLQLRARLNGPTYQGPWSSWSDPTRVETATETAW
Put plainly: competition ELISA, biotinylated TPO on captured mpl-Ig.

B1: 12E10 Fab′2 (other)
VH: QVQLQQSGPGLVKPSETLSLTCTVSGDSISSYYWSWIRQPPGKGLEWIGYIYYSGSTNYNPSLKSRVTISVDTSKSQFSLKLSSVTAADTAVYYCARGRYFDVWGRGTMVTVSS
VL: SYVLTQPPSVSGSPGQSITISCTGTSSDVGGYNYVSWYQQHPGKAPKLMIYEGSKRPSGVSNRFSGSKSGNTASLTISGLQAEDEADYYCSSYTTRSTRVFGGGTKLTVL
notes: F(ab′)2 with leucine zipper; A lambda version of the Fab′2 vector is not described; copies: 2 + 2
B1 came in with an IC50 of 0.64 nM. This lies in the sub-nanomolar range.
